Patent US20240368565A1 (PROMEGA, published 2024)
Residue numbers refer to the chain shown, from its start. Numbers in names are those of the source.

How the values were obtained:
[1] = molecular target: T1, Biotin-HaloTag[3-19] (I2R)-4xGly/Ser-VS-HiBiT (N-terminal biotin); assay: BLI; biotin-peptide on streptavidin probe; PBST, 25 C
T1 construct: Synthetic peptide; also called HaloTag[3-19](12R)-4×Gly/Ser-VS-HiBiT; DualTag peptide
T1 peptide: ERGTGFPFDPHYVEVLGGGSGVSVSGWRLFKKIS

[2] = molecular target: Aga2-15xGly/Ser-EGFP-4xGly/Ser-HaloTag[3-19]-4xGly/Ser-VS-HiBiT; assay: flow cytometry of yeast displaying the tag; reporter bound, washed, then JF549 HaloTag ligand
[3] = molecular target: Aga2-15xGly/Ser-EGFP-4xGly/Ser-HaloTag[3-19]-4xGly/Ser-…; assay: as above
[4] = molecular target: Aga2-15xGly/Ser-EGFP-4xGly/Ser-HaloTag[3-19]-4xGly/Ser-…; assay: as above; remark: listed apart in the source
[5] = molecular target: Aga2-15xGly/Ser-EGFP-4xGly/Ser-HaloTag[3-19]-4xGly/Ser-…; assay: as above; remark: listed apart in the source
[6] = molecular target: Aga2-15xGly/Ser-4xGly/Ser-HaloTag[3-19]-4xGly/Ser-VS-HiBiT; assay: as above
[7] = molecular target: T2, Biotin-HaloTag[3-19] (I2R)-4xGly/Ser-HiBiT (N-terminal biotin (on Glu1), used for immobilisation on streptavidin probes; not carried by the letters); assay: BLI; biotin-peptide on streptavidin probe; PBST, 25 C
T2 construct: Synthetic peptide
T2 peptide: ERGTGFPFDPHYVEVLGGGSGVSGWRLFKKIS

[8] = molecular target: T3, Biotin-HaloTag[3-19] (I2R)-VS-HiBiT (N-terminal biotin (on Glu1), used for immobilisation on streptavidin probes; not carried by the letters); assay: as above
T3 construct: Synthetic peptide
T3 peptide: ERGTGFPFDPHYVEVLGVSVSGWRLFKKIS

[9] = molecular target: T4, Biotin-HaloTag[3-19] (I2R)-4xGly/Ser-VS-HiBiT (K8R + K9R) (N-terminal biotin (on Glu1), used for immobilisation on streptavidin probes; not carried by the letters); assay: as above
T4 construct: Synthetic peptide
T4 peptide: T1 peptide with K31R, K32R

[10] = molecular target: T5, Biotin-VS-HiBiT-5xGly/Ser-HaloTag[3-19] (I2R) (N-terminal biotin (on Val1), used for immobilisation on streptavidin probes; not carried by the letters); assay: as above
T5 construct: Synthetic peptide
T5 peptide: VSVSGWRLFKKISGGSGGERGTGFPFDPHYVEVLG

[11] = molecular target: T6, VS-HiBiT-HaloTag[3-19] (I2R) (not fully specified; N-terminal biotin (on Val1) per the head of Table 1 ('All peptides are biotinylated at the N-terminus'), though Table 2 does not print Biotin for this entry; not carried by the …); assay: as above
T6 construct: Synthetic peptide

B1: HaloTag[22-297](M2F)-12xGly/Ser-LgBiT-3xGly/Ser-6xHis (other)
chain: MFHYVDVGPRDGTPVLFLHGNPTSSYVWRNIIPHVAPTHRCIAPDLIGMGKSDKPDLGYFFDDHVRFMDAFIEALGLEEVVLVIHDWGSALGFHWAKRNPERVKGIAFMEFIRPIPTWDEWPEFARETFQAFRTTDVGRKLIIDQNVFIEGTLPMGVVRPLTEVEMDHYREPFLNPVDREPLWRFPNELPIAGEPANIVALVEEYMDWLHQSPVPKLLFWGTPGVLIPPAEAARLAKSLPNCKAVDIGPGLNLLQEDNPDLIGSEIARWLSTLEISGGSGGSGGGGSGGMVFTLEDFVGDWEQTAAYNLDQVLEQGGVSSLLQNLAVSVTPIQRIVRSGENALKIDIHVIIPYEGLSADQMAQIEEVFKVVYPVDDHHFKVILPYGTLVIDGVTPNMLNYFGRPYEGIAVFDGKKITVTGTLWNGNKIIDERLITPDGSMLFRVTINSGSGHHHHHH
notes: Purified tandem polypeptide reporter (large split-HaloTag fragment fused to LgBiT); also called Reporter
Kd [1]: 1.61 nM | koff [1]: 8.34e-05 s⁻¹ | kon [1]: 51900 M⁻¹ s⁻¹ | percent of cells in the JF549+ gate [2]: 46.4% | percent of cells in the JF549+ gate [3]: 44.8% | percent of cells in the JF549+ gate [4]: 44.2% | percent of cells in the JF549+ gate [5]: 6.96% | percent of cells in the JF549+ gate [6]: 48.9%

B2: HaloTag[22-297](M2F + D53G + K140E)-12xGly/Ser-LgBiT-3xGly/Ser-6xHis (other)
chain: B1 chain with D53G, K140E
Kd [7]: 0.323 nM | koff [7]: 1.98e-05 s⁻¹ | kon [7]: 61300 M⁻¹ s⁻¹ | Kd [1]: 0.576 nM | koff [1]: 4.82e-05 s⁻¹ | kon [1]: 83800 M⁻¹ s⁻¹ | Kd [8]: 0.713 nM | koff [8]: 6.05e-05 s⁻¹ | kon [8]: 84800 M⁻¹ s⁻¹ | kon [9]: 71400 M⁻¹ s⁻¹ | Kd [10]: 0.782 nM | koff [10]: 6.94e-05 s⁻¹ | kon [10]: 88700 M⁻¹ s⁻¹ | Kd [11]: 0.613 nM | koff [11]: 6.77e-05 s⁻¹ | kon [11]: 110000 M⁻¹ s⁻¹
